Measurements from PMC3027617 (2011).

Target: 2F5 epitope scaffold ES1
Assay: SPR

B1: 2F5 monoclonal antibody (antibody, V domains shown)
VH: RITLKESGPPLVKPTQTLTLTCSFSGFSLSDFGVGVGWIRQPPGKALEWLAIIYSDDDKRYSPSLNTRLTITKDTSKNQVVLVMTRVSPVDTATYFCAHRRGPTTLFGVPIARGPVNAMDVWGQGITVTISS
VL: ALQLTQSPSSLSASVGDRITITCRASQGVTSALAWYRQKPGSPPQLLIYDASSLESGVPSRFSGSGSGTEFTLTISTLRPEDFATYYCQQLHFYPHTFGGGTRVDVR
Question: How did the koff turn out when B1 was run?
Answer: The koff was 0.00109 s⁻¹.
